Data from paper PMC11154708.

Biological target: Rad51 (S. cerevisiae) (UniProt P25454)
Assay: co-IP; Rad51 immunoprecipitated with anti-Rad51 antibody from yeast lysates (Rad51 overexpressed from a plasmid), IP fraction blotted for Hsp82 and Aha1; strains WT, hda1Δ, aha1Δ and hsp82 mutant strains (K27Q, K27R, K274Q, K274R, K178R); rad51Δ as negative control; blots quantified with Image J

Sequence of UniProt P25454 (P25454 whole entry): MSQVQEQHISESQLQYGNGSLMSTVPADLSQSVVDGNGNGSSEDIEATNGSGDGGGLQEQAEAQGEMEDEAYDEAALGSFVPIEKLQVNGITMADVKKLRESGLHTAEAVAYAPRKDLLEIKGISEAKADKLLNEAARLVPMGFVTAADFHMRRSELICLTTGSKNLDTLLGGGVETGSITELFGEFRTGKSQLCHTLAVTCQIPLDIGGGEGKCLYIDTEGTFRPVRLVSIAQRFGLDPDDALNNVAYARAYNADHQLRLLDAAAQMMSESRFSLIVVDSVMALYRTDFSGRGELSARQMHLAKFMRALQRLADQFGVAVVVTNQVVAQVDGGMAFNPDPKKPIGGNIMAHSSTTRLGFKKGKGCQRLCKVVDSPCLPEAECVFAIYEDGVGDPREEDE

fold reduction of association in the aha1Δ strain against the WT strain: 2 fold | fold reduction of association in the hda1Δ strain against the WT strain: 5 fold
Substance: Hsp82 (WT) (from UniProt P02829 1-709) (natural protein)
